Sequences and labels used below:
B1: Speckle-type POZ protein (Homo sapiens), O43791 (parent)
chain: MSRVPSPPPPAEMSSGPVAESWCYTQIKVVKFSYMWTINNFSFCREEMGEVIKSSTFSSGANDKLKWCLRVNPKGLDEESKDYLSLYLLLVSCPKSEVRAKFKFSILNAKGEETKAMESQRAYRFVQGKDWGFKKFIRRDFLLDEANGLLPDDKLTLFCEVSVVQDSVNISGQNTMNMVKVPECRLADELGGLWENSRFTDCCLCVAGQEFQAHKAILAARSPVFSAMFEHEMEESKKNRVEINDVEPEVFKEMMCFIYTGKAPNLDKMADDLLAAADKYALERLKVMCEDALCSNLSVENAAEILILADLHSADQLKTQAVDFINYHASDVLETSGWKSMVVSHPHLVAEAYRSLASAQCPFLGPPRKRLKQS
partner: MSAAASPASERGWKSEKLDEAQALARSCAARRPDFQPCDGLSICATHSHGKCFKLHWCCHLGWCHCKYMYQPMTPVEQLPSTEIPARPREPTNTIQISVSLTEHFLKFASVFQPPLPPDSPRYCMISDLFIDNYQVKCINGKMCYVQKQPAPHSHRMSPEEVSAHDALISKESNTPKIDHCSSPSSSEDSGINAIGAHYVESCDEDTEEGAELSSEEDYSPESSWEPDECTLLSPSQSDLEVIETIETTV
B2: Speckle-type POZ protein (Homo sapiens), O43791 (parent)
chain: B1 chain
partner: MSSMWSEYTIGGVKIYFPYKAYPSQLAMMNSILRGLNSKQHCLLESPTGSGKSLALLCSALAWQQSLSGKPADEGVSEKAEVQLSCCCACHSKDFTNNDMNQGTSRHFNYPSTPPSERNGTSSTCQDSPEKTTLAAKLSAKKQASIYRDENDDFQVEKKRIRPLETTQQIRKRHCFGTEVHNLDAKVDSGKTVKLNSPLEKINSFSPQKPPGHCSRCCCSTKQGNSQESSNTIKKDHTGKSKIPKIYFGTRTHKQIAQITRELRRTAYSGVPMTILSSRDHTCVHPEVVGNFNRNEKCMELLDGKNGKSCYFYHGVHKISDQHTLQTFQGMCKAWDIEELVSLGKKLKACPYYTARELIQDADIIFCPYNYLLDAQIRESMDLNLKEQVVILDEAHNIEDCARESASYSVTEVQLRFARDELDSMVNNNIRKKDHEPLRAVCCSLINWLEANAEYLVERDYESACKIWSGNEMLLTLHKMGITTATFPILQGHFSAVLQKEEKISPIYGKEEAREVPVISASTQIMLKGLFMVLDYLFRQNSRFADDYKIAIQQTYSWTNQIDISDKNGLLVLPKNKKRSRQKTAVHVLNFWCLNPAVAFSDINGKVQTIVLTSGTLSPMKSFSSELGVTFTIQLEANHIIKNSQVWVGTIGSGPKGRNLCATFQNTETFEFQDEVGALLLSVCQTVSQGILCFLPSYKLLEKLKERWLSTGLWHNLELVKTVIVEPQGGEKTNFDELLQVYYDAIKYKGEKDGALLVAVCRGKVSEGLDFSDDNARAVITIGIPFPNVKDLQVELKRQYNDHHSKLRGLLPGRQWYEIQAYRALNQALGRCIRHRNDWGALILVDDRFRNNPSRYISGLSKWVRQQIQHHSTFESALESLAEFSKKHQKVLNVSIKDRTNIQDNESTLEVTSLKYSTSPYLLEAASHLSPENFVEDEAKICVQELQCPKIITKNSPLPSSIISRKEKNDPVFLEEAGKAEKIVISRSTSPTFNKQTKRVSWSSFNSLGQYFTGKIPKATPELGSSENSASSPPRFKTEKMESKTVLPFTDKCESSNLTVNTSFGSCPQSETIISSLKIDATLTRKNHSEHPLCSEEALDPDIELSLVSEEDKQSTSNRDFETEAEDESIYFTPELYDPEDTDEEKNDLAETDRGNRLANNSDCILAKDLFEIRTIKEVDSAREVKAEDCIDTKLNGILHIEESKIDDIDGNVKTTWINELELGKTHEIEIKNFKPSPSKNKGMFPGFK
B3: Speckle-type POZ protein (Homo sapiens), O43791 (parent)
chain: B1 chain
partner: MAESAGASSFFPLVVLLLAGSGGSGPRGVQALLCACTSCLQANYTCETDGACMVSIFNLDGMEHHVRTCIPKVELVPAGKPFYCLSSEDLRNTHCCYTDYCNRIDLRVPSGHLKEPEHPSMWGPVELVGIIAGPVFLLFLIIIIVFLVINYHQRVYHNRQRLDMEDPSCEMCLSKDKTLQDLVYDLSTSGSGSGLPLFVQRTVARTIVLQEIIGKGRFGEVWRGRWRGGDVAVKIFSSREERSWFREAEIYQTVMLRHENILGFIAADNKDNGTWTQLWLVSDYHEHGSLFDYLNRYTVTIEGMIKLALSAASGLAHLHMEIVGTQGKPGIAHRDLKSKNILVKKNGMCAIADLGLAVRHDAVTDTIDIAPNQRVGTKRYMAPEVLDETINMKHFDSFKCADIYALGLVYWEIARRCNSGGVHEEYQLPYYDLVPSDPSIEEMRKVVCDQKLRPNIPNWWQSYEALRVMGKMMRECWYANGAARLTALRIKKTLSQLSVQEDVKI

The variants in one assay derive from B1. As to conditions: with cc070_human C3orf70, A6NLC5.
In the case of MSRVPSPPPPAEMSSGPVAESWCYTQIKVVKFSYMWTINNFSFCREEMGEVIKSSTFSSGANDKLKWCLRVNPKGLDEESKDYLSLYLLLVSCPKSEVRAKCKFSILNAKGEETKAMESQRAYRFVQGKDWGFKKFIRRDFLLDEANGLLPDDKLTLFCEVSVVQDSVNISGQNTMNMVKVPECRLADELGGLWENSRFTDCCLCVAGQEFQAHKAILAARSPVFSAMFEHEMEESKKNRVEINDVEPEVFKEMMCFIYTGKAPNLDKMADDLLAAADKYALERLKVMCEDALCSNLSVENAAEILILADLHSADQLKTQAVDFINYHASDVLETSGWKSMVVSHPHLVAEAYRSLASAQCPFLGPPRKRLKQS [F102C], the “effect of a mutation on the interaction” value is recorded as “with no effect”.

Variants of B1 are the subject of another assay. To be noted: with cc070_human C3orf70, A6NLC5. This is another data set of the same source.
On to MSRVPSPPPPAEMSSGPVAESWCYTQIKVVKFSYMWTINNFSFCREEMGEVIKSSTFSSGANDKLKWCLRVNPKGLDEESKDYLSLYLLLVSCPKSEVRAKFKFSILNAKGEETKAMESQRAYRFVQGKDWGLKKFIRRDFLLDEANGLLPDDKLTLFCEVSVVQDSVNISGQNTMNMVKVPECRLADELGGLWENSRFTDCCLCVAGQEFQAHKAILAARSPVFSAMFEHEMEESKKNRVEINDVEPEVFKEMMCFIYTGKAPNLDKMADDLLAAADKYALERLKVMCEDALCSNLSVENAAEILILADLHSADQLKTQAVDFINYHASDVLETSGWKSMVVSHPHLVAEAYRSLASAQCPFLGPPRKRLKQS [F133L], for which the “effect of a mutation on the interaction” value is recorded as “with no effect”.

In another assay the parent is B2. To be noted: with fancj_human BRIP1, Q9BX63.
With MSRVPSPPPPAEMSSGPVAESWCYTQIKVVKFSYMWTINNFSFCREEMGEVIKSSTFSSGANDKLKWCLRVNPKGLDEESKDYLSLCLLLVSCPKSEVRAKFKFSILNAKGEETKAMESQRAYRFVQGKDWGFKKFIRRDFLLDEANGLLPDDKLTLFCEVSVVQDSVNISGQNTMNMVKVPECRLADELGGLWENSRFTDCCLCVAGQEFQAHKAILAARSPVFSAMFEHEMEESKKNRVEINDVEPEVFKEMMCFIYTGKAPNLDKMADDLLAAADKYALERLKVMCEDALCSNLSVENAAEILILADLHSADQLKTQAVDFINYHASDVLETSGWKSMVVSHPHLVAEAYRSLASAQCPFLGPPRKRLKQS [Y87C], the “effect of a mutation on the interaction” value is “with no effect”.

Variants of B2 are the subject of a further assay. As to conditions: with fancj_human BRIP1, Q9BX63. The source holds these as a separate data set.
Take MSRVPSPPPPAEMSSGPVAESWCYTQIKVVKFSYMWTINNFSFCREEMGEVIKSSTFSSGANDKLKWCLRVNPKGLDEESKDYLSLYLLLVSCPKSEVRAKFKFSILNAKGEETKAMESQRAYRFVQGKDWGVKKFIRRDFLLDEANGLLPDDKLTLFCEVSVVQDSVNISGQNTMNMVKVPECRLADELGGLWENSRFTDCCLCVAGQEFQAHKAILAARSPVFSAMFEHEMEESKKNRVEINDVEPEVFKEMMCFIYTGKAPNLDKMADDLLAAADKYALERLKVMCEDALCSNLSVENAAEILILADLHSADQLKTQAVDFINYHASDVLETSGWKSMVVSHPHLVAEAYRSLASAQCPFLGPPRKRLKQS [F133V]: the “effect of a mutation on the interaction” value was “with no effect”.

Variants of B2 are the subject of a further assay. As to conditions: with fancj_human BRIP1, Q9BX63. The source holds these as a separate data set.
Consider MSRVPSPPPPAEMSSGPVAESWCYTQIKVVKFSYMWTINNFSFCREEMGEVIKSSTFSSGANDKLKWCLRVNPKGLDEESKDYLSLYLLLVSCPKSEVRAKFKFSILNAKGEETKAMESQRAYRFVQGKDWGLKKFIRRDFLLDEANGLLPDDKLTLFCEVSVVQDSVNISGQNTMNMVKVPECRLADELGGLWENSRFTDCCLCVAGQEFQAHKAILAARSPVFSAMFEHEMEESKKNRVEINDVEPEVFKEMMCFIYTGKAPNLDKMADDLLAAADKYALERLKVMCEDALCSNLSVENAAEILILADLHSADQLKTQAVDFINYHASDVLETSGWKSMVVSHPHLVAEAYRSLASAQCPFLGPPRKRLKQS [F133L], for which the “effect of a mutation on the interaction” value is on record as “with no effect”.

In another assay the parent is B2. As to conditions: with fancj_human BRIP1, Q9BX63. The source holds these as a separate data set.
On to MSRVPSPPPPAEMSSGPVAESWCYTQIKVVKFSYMWTINNFSFCREEMGEVIKSSTFSSGANDKLKWCLRVNPKGLDEESKDYLSLYLLLVSCPKSEVRAKCKFSILNAKGEETKAMESQRAYRFVQGKDWGFKKFIRRDFLLDEANGLLPDDKLTLFCEVSVVQDSVNISGQNTMNMVKVPECRLADELGGLWENSRFTDCCLCVAGQEFQAHKAILAARSPVFSAMFEHEMEESKKNRVEINDVEPEVFKEMMCFIYTGKAPNLDKMADDLLAAADKYALERLKVMCEDALCSNLSVENAAEILILADLHSADQLKTQAVDFINYHASDVLETSGWKSMVVSHPHLVAEAYRSLASAQCPFLGPPRKRLKQS [F102C], for which the “effect of a mutation on the interaction” value was “with no effect”.

Another assay covers variants of B3. As to conditions: with acv1b_human ACVR1B.
Take MSRVPSPPPPAEMSSGPVAESWCYTQIKVVKFSYMWTINNFSFCREEMGEVIKSSTFSSGANDKLKWCLRVNPKGLDEESKDYLSLYLLLVSCPKSEVRAKFKFSILNAKGEETKAMESQRAYRFVQGKDWGVKKFIRRDFLLDEANGLLPDDKLTLFCEVSVVQDSVNISGQNTMNMVKVPECRLADELGGLWENSRFTDCCLCVAGQEFQAHKAILAARSPVFSAMFEHEMEESKKNRVEINDVEPEVFKEMMCFIYTGKAPNLDKMADDLLAAADKYALERLKVMCEDALCSNLSVENAAEILILADLHSADQLKTQAVDFINYHASDVLETSGWKSMVVSHPHLVAEAYRSLASAQCPFLGPPRKRLKQS [F133V]: the “effect of a mutation on the interaction” value is recorded as “with no effect”.

The next assay covers variants of B3. As to conditions: with acv1b_human ACVR1B. This is another data set of the same source.
On to MSRVPSPPPPAEMSSGPVAESWCYTQIKVVKFSYMWTINNFSFCREEMGEVIKSSTFSSGANDKLKWCLRVNPKGLDEESKDYLSLCLLLVSCPKSEVRAKFKFSILNAKGEETKAMESQRAYRFVQGKDWGFKKFIRRDFLLDEANGLLPDDKLTLFCEVSVVQDSVNISGQNTMNMVKVPECRLADELGGLWENSRFTDCCLCVAGQEFQAHKAILAARSPVFSAMFEHEMEESKKNRVEINDVEPEVFKEMMCFIYTGKAPNLDKMADDLLAAADKYALERLKVMCEDALCSNLSVENAAEILILADLHSADQLKTQAVDFINYHASDVLETSGWKSMVVSHPHLVAEAYRSLASAQCPFLGPPRKRLKQS [Y87C], for which the “effect of a mutation on the interaction” value is “with no effect”.
